Measurements from patent US12427210B2 (3B PHARMACEUTICALS GMBH, dated 2025).

Columns and labels:
[1] = biological target: human fibroblast activation protein (FAP) on human WI-38 fibroblasts (human); test: competitive FACS binding on FAP-expressing WI-38 cells against 3 nM Cy5-labeled compound; category A = pIC50 values >8.0
[2] = biological target: Recombinant human FAP (R&D systems, #3715-SE) (human); test: SPR (Biacore T200), rhFAP captured by anti-FAP antibody, single cycle kinetics; category A = pKD values >8.0
Sequence of Recombinant human FAP (R&D systems, #3715-SE) (human) (chain, as listed by the source limits assumed): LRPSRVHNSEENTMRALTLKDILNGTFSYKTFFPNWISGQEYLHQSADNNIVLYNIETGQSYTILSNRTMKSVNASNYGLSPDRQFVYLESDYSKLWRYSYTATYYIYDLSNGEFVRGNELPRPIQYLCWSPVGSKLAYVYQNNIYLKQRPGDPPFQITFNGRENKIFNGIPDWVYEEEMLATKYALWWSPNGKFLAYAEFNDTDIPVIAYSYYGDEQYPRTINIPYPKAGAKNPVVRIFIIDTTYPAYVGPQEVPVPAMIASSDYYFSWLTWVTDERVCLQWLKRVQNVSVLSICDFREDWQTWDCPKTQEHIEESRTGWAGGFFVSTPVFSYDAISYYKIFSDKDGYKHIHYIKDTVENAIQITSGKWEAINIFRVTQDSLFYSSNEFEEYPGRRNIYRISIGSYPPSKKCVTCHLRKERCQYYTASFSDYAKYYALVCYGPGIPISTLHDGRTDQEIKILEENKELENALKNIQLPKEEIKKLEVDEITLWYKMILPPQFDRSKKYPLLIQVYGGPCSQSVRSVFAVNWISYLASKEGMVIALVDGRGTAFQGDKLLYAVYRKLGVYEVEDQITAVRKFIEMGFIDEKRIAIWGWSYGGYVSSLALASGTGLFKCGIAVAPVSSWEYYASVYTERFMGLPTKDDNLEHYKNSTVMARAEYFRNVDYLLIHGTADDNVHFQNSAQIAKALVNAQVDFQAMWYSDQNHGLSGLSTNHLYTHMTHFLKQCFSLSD

Binder	pIC50 Category (FACS) [1] [pIC50]	pKD Category [2] [pKD]
CPPTQFCD (N-terminal hexanoyl (Hex); Cys1 and Cys7 cyclised through tMeBn carrying DOTA-PP; C-terminal amide) [Hex-[Cys(tMeBn(DOTA-PP))-Pro-Pro-Thr-Gln-Phe-Cys]-Asp-NH2 (3BP-3407)]	> 8	> 8
CPPTQFC (N-terminal hexanoyl (Hex); Cys1 and Cys7 cyclised through tMeBn carrying DOTA-AET; free C-terminal acid (-OH)) [Hex-[Cys(tMeBn(DOTA-AET))-Pro-Pro-Thr-Gln-Phe-Cys]-OH (3BP-3554)]		> 8
CPPTQFCD (N-terminal hexanoyl (Hex); Cys1 and Cys7 cyclised through tMeBn carrying InDOTA-PP (indium complex); C-terminal amide) [Hex-[Cys(tMeBn(InDOTA-PP))-Pro-Pro-Thr-Gln-Phe-Cys]-Asp-NH2 (3BP-3590)]	> 8	> 8
CPPTQFCD (N-terminal hexanoyl (Hex); Cys1 and Cys7 cyclised through tMeBn carrying LuDOTA-PP (lutetium complex); C-terminal amide) [Hex-[Cys(tMeBn(LuDOTA-PP))-Pro-Pro-Thr-Gln-Phe-Cys]-Asp-NH2 (3BP-3591)]	> 8	> 8
CPPTQFCD (N-terminal hexanoyl (Hex); Cys1 and Cys7 cyclised through tMeBn carrying GaDOTA-PP (gallium complex); C-terminal amide) [Hex-[Cys(tMeBn(GaDOTA-PP))-Pro-Pro-Thr-Gln-Phe-Cys]-Asp-NH2 (3BP-3592)]	> 8	> 8
CPPTQFC (N-terminal hexanoyl (Hex); Cys1 and Cys7 cyclised through tMeBn carrying InDOTA-AET (indium complex); free C-terminal acid (-OH)) [Hex-[Cys(tMeBn(InDOTA-AET))-Pro-Pro-Thr-Gln-Phe-Cys]-OH (3BP-3623)]		> 8
CPPTQFC (N-terminal hexanoyl (Hex); Cys1 and Cys7 cyclised through tMeBn carrying LuDOTA-AET (lutetium complex); free C-terminal acid (-OH)) [Hex-[Cys(tMeBn(LuDOTA-AET))-Pro-Pro-Thr-Gln-Phe-Cys]-OH (3BP-3624)]		> 8
CPPTQFC (N-terminal hexanoyl (Hex); Cys1 and Cys7 cyclised through tMeBn carrying GaDOTA-AET (gallium complex); free C-terminal acid (-OH)) [Hex-[Cys(tMeBn(GaDOTA-AET))-Pro-Pro-Thr-Gln-Phe-Cys]-OH (3BP-3949)]		> 8
CPPTQFCD (N-terminal hexanoyl (Hex); Cys1 and Cys7 cyclised through tMeBn carrying EuDOTA-PP (europium complex); C-terminal amide) [Hex-[Cys(tMeBn(EuDOTA-PP))-Pro-Pro-Thr-Gln-Phe-Cys]-Asp-NH2 (3BP-3661)]	> 8	
